Patent US20240209076A1 (KODIAK SCIENCES, published 2024)
Residue numbers refer to the chain shown, from its start. Names and notes keep the numbering of the source. One block for each binder: values may come before it.

Assays:
human IL-6 = human IL-6 (human, UniProt P05231 30-212); assay: SPR Biacore, supernatant, Protein A capture, 37 C
Description: Those four positions were selected based on their tolerance for mutations as observed in bacterial and mammalian screens. […] These cultures were centrifuged and supernatants containing secreted antibodies were harvested and diluted in HBS-EP+ running buffer (1:20 ratio).
Antibodies were captured on a Protein A chip (GE) by injecting 1:20 cell supernatant dilutions at 10 μL/min for 60 seconds. […] The sensor chip was regenerated by a 60 seconds injection of 10 mM Glycine pH 1.7 at the flow rate of 50 μL/min. […] For this setup, 1 μg/mL of purified antibody was injected over a Protein A chip at 10 μL/min for 25 seconds. […] The sensor chip was regenerated by a 60 seconds injection of 10 mM Glycine pH 1.7 at flow rate of 50 μL/min. Data analysis for supernatant and purified samples were performed using BIAevaluation software (GE). All sensorgrams were double reference subtracted and fit using a 1:1 Langmuir binding model.

recombinant human IL-6 = molecular target: T1, recombinant human IL-6 (human, UniProt P05231 30-212); assay: SPR (Biacore), supernatant IgG on Protein A, 25 C
T1 construct: Flowed in solution over the captured antibodies
Description: Antibodies were captured on a Protein A chip (GE) by injecting 1:20 dilution of cell supernatant at 10 μL/min for 60 seconds. […] The sensor chip was regenerated by a 60 seconds injection of 10 mM Glycine pH 1.7 at flow rate of 50 μL/min. […] For this setup, 1 μg/mL of purified antibody was injected over a Protein A chip at 10 μL/min for 25-28 seconds. Data analysis for supernatant and purified samples were performed using BIAevaluation software (GE). All sensorgrams were double reference subtracted and fit using a 1:1 Langmuir binding model.

T1 sequence (P05231 30-212 limits assumed): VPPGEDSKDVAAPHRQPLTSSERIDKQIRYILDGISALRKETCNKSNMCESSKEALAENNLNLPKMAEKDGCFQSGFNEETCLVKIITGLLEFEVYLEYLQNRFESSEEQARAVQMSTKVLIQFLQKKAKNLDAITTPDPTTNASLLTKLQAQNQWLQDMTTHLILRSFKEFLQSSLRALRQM
human IL-6, sequence (P05231 30-212 limits assumed): as above

- Kd (recombinant human IL-6): 0.39 nM
- koff (recombinant human IL-6): 0.000179 s⁻¹
- kon (recombinant human IL-6): 460000 M⁻¹ s⁻¹
B3: anti-IL-6 antibody, heavy chain T58K, light chain WT (antibody, IgG1, V domains shown)
VH: EVQLVESGGGLVQPGGSLRLSCAASGFTFSPFAMSWVRQAPGKGLEWVAKISPGGSWKYYSDTVTGRFTFSLDTSKSTAYLQMNSLRAEDTAVYYCARQLWGYYALDIWGQGTLVTVSS
VL: DIQLTQSPSSLSASVGDRVTITCSASISVSYMYWYQQKPGKAPKLLIYDMSNLASGVPSRFSGSGSGTDFTLTISSLQPEDFATYYCMQWSGYPYTFGQGTKVEIK
notes: Full IgG1 tested; V domains derived as in m2

- Kd (recombinant human IL-6): 0.37 nM
- koff (recombinant human IL-6): 0.000143 s⁻¹
- kon (recombinant human IL-6): 386000 M⁻¹ s⁻¹
B4: anti-IL-6 antibody, heavy chain T28K, light chain WT (antibody, IgG1, V domains shown)
VH: B3 VH with T28K, K58T
VL: B3 VL
notes: as for B3

- Kd (recombinant human IL-6): 0.00551 nM
- koff (recombinant human IL-6): 2.67e-06 s⁻¹
- kon (recombinant human IL-6): 484000 M⁻¹ s⁻¹
B5: anti-IL-6 antibody, heavy chain WT, light chain S24P (antibody, IgG1, V domains shown)
VH: B3 VH with K58T
VL: B3 VL with S24P
notes: as for B3

- Kd (human IL-6): 0.296 nM
- koff (human IL-6): 0.00048 s⁻¹
- kon (human IL-6): 1.62e+06 M⁻¹ s⁻¹
B6: Anti-IL-6 antibody, heavy chain G66D / light chain WT (antibody, IgG1, V domains shown)
VH: B3 VH with K58T, G66D
VL: B3 VL
notes: IgG1; variable domains only

- Kd (recombinant human IL-6): 0.347 nM
- koff (recombinant human IL-6): 0.000163 s⁻¹
- kon (recombinant human IL-6): 469000 M⁻¹ s⁻¹
B7: anti-IL-6 antibody, heavy chain T28E, light chain WT (antibody, IgG1, V domains shown)
VH: B3 VH with T28E, K58T
VL: B3 VL
notes: as for B3

- Kd (recombinant human IL-6): 0.21 nM
- koff (recombinant human IL-6): 0.000138 s⁻¹
- kon (recombinant human IL-6): 654000 M⁻¹ s⁻¹
B8: anti-IL-6 antibody, heavy chain V48Q, light chain WT (antibody, IgG1, V domains shown)
VH: B3 VH with V48Q, K58T
VL: B3 VL
notes: as for B3

- Kd (recombinant human IL-6): 0.388 nM
- koff (recombinant human IL-6): 0.000212 s⁻¹
- kon (recombinant human IL-6): 546000 M⁻¹ s⁻¹
B16: anti-IL-6 antibody, heavy chain T63K, light chain WT (antibody, IgG1, V domains shown)
VH: B3 VH with K58T, T63K
VL: B3 VL
notes: as for B3

- Kd (recombinant human IL-6): 0.412 nM
- koff (recombinant human IL-6): 0.000137 s⁻¹
- kon (recombinant human IL-6): 332000 M⁻¹ s⁻¹
B17: anti-IL-6 antibody, heavy chain T28Y, light chain WT (antibody, IgG1, V domains shown)
VH: B3 VH with T28Y, K58T
VL: B3 VL
notes: as for B3

The next lines start with the binder.

B1: Anti-IL-6 antibody, heavy chain S35H, G66D / light chain WT (antibody, IgG1, V domains shown)
VH: B3 VH with S35H, K58T, G66D
VL: B3 VL
notes: IgG1; variable domains only
- Kd (human IL-6): 0.374 nM
- koff (human IL-6): 0.000548 s⁻¹
- kon (human IL-6): 1.46e+06 M⁻¹ s⁻¹

B2: anti-IL-6 antibody, heavy chain T65G, light chain WT (antibody, IgG1, V domains shown)
VH: B3 VH with K58T, T65G
VL: B3 VL
notes: as for B3
- Kd (recombinant human IL-6): 0.0954 nM
- koff (recombinant human IL-6): 5.69e-05 s⁻¹
- kon (recombinant human IL-6): 597000 M⁻¹ s⁻¹

B9: Anti-IL-6 antibody, heavy chain G66D / light chain M32L, M50D, N52S, M88Q (antibody, IgG1, V domains shown)
VH: B3 VH with K58T, G66D
VL: B3 VL with M32L, M50D, N52S, M88Q
notes: IgG1; variable domains only; VL is variant III
- Kd (human IL-6): 0.393 nM
- koff (human IL-6): 0.000654 s⁻¹
- kon (human IL-6): 1.66e+06 M⁻¹ s⁻¹

B10: anti-IL-6 antibody, heavy chain T63E, light chain WT (antibody, IgG1, V domains shown)
VH: B3 VH with K58T, T63E
VL: B3 VL
notes: as for B3
- Kd (recombinant human IL-6): 0.445 nM
- koff (recombinant human IL-6): 0.000169 s⁻¹
- kon (recombinant human IL-6): 380000 M⁻¹ s⁻¹

B11: anti-IL-6 antibody, heavy chain T28A, light chain WT (antibody, IgG1, V domains shown)
VH: B3 VH with T28A, K58T
VL: B3 VL
notes: as for B3
- Kd (recombinant human IL-6): 0.354 nM
- koff (recombinant human IL-6): 0.000139 s⁻¹
- kon (recombinant human IL-6): 393000 M⁻¹ s⁻¹

B12: anti-IL-6 antibody, heavy chain V48I, light chain WT (antibody, IgG1, V domains shown)
VH: B3 VH with V48I, K58T
VL: B3 VL
notes: as for B3
- Kd (recombinant human IL-6): 0.346 nM
- koff (recombinant human IL-6): 0.000159 s⁻¹
- kon (recombinant human IL-6): 460000 M⁻¹ s⁻¹

B13: anti-IL-6 antibody, heavy chain T63Q, light chain WT (antibody, IgG1, V domains shown)
VH: B3 VH with K58T, T63Q
VL: B3 VL
notes: as for B3
- Kd (recombinant human IL-6): 0.594 nM
- koff (recombinant human IL-6): 0.000184 s⁻¹
- kon (recombinant human IL-6): 309000 M⁻¹ s⁻¹

B14: anti-IL-6 antibody, heavy chain WT, light chain S24K (antibody, IgG1, V domains shown)
VH: B3 VH with K58T
VL: B3 VL with S24K
notes: as for B3
- Kd (recombinant human IL-6): 0.424 nM
- koff (recombinant human IL-6): 0.000132 s⁻¹
- kon (recombinant human IL-6): 311000 M⁻¹ s⁻¹

B15: anti-IL-6 antibody, heavy chain Y103S, light chain WT (antibody, IgG1, V domains shown)
VH: B3 VH with K58T, Y103S
VL: B3 VL
notes: as for B3
- Kd (recombinant human IL-6): 0.423 nM
- koff (recombinant human IL-6): 0.000231 s⁻¹
- kon (recombinant human IL-6): 546000 M⁻¹ s⁻¹
